Measured values: patent US20090023158A1

Legend:
[1] = system: C99GVP-SREBP1-gsnk
[2] = system: C99GVP-K28S
[3] = system: C99GVP-SLSS
[4] = system: C99GVP-N27S
[5] = system: C99GVP-S26L
[6] = system: C99GVP-G25S

## gamma secretase (endogenous, HEK cells)
[1]
  Aβ secretion: also maintained normal Aβ secretion
[2]
  AICD production and signaling activity: little difference in their respective AICD production (FIG. 9A, lower panels) and signaling activity (FIG. 9D)
  Aβ40 (secreted, ELISA): the K28S substitution resulted in an even more substantial (˜90%) decrease in both measurements
  total Aβ (secreted): the K28S substitution resulted in an even more substantial (˜90%) decrease in both measurements
[3]
  secreted Aβ: This mutation led to a marked reduction (˜97%) in secreted Aβ
[4]
  AICD production and signaling activity: little difference in their respective AICD production (FIG. 9A, lower panels) and signaling activity (FIG. 9D)
  secreted Aβ: the other two mutations, G25S and N27S, showed no obvious effect on secreted Aβ
[5]
  AICD production and signaling activity: little difference in their respective AICD production (FIG. 9A, lower panels) and signaling activity (FIG. 9D)
  Aβ40 (secreted, ELISA): a 52.7±2.3% drop of Aβ40
  total Aβ (secreted): The S26L mutation led to a 65.7±8.5% reduction in total Aβ
[6]
  AICD production and signaling activity: little difference in their respective AICD production (FIG. 9A, lower panels) and signaling activity (FIG. 9D)
  secreted Aβ: the other two mutations, G25S and N27S, showed no obvious effect on secreted Aβ
